# Experiments:
# MS2 coat protein [1] = test: apparent KD of MS2 coat protein, switch ON state; designed switch direction (-1 OFF switch, 1 ON switch): -1; higher = weaker reporter binding; conditions: FMN input: 0 or 200 uM; Eterna round: R93 (includes R88 designs)
# Method in brief: (§1)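 Apparent KD was obtained for each design as the median of normalised binding-curve fits over its clusters. RNA switches transcribed on-chip from Illumina sequencing clusters were titrated with SNAP-549-labelled MS2 coat protein (twofold steps, 0.7 or 1.5 nM to 3 µM) in 100 mM Tris-HCl pH 7.5, 80 mM KCl, 4 mM MgCl2, without or with constant ligand.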
# MS2 coat protein [2] = test: apparent KD of MS2 coat protein, switch OFF state (with FMN for OFF switches, without FMN for ON switches); designed switch direction (-1 OFF switch, 1 ON switch): -1; higher = weaker reporter binding; conditions: FMN input: 0 or 200 uM; Eterna round: R93 (includes R88 designs)
# Method in brief: as §1
# MS2 coat protein [3] = test: apparent KD of MS2 coat protein; designed switch direction (-1 OFF switch, 1 ON switch): 1; higher = weaker reporter binding
# Method in brief: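 The reported apparent KD is a per-design median over clusters, from curve fits of normalised cluster fluorescence. Protein titrations used SNAP-549-labelled MS2 coat protein, doubled from 0.7 or 1.5 nM to 3 µM, in Tris-HCl pH 7.5 buffer with KCl, MgCl2, BSA, DTT, tRNA and Tween-20, with no input, 200 uM small-molecule ligand, or an oligonucleotide input. The RNA switches were transcribed on Illumina chips by stalled E. coli RNA polymerase.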
# [4] = input ligand: microRNA oligo, concentration not stated
# [5] = Eterna round: R95, input ligand: microRNA oligo, concentration not stated
# [6] = Eterna round: R95, input ligand: FMN 200 uM
# [7] = Eterna round: R95, input ligand: none
Sequence,apparent KD of MS2 coat protein (MS2 coat protein [1]),apparent KD of MS2 coat protein (MS2 coat protein [2]),further results
AAAAAAAGAGGAUAUACAUGAGAAAAAAAAAUGUAAAAAAAACAUGAGGAUCACCCAUGUAGAAGGCUUAAAAA [Ecxl-I],33.5 nM,48.3 nM,–
AAAAAAAGAGGAUAUACGAACAUGUCGAAAGACGUGAAGGGACAUGAGGAUCACCCAUGUAGAAGGUUUAAAAA [Mat - Exclusion 2 - JL mod - D83],28.5 nM,14.6 nM,–
AAAAAACAUGAGGAUCACCCAUGUAAGGAUAUCUAAAAUAAAAGAAAAAUAAAGAAAAGGAGAAGGUACAUGAA [JL wbt mod 21],28.6 nM,50.6 nM,–
AAAAAACAUGAGGAUCACCCAUGUAAGGAUAUGCCUAAAAAAAAAAAAAAAAAAAAUGGCAGAAGGUGCAAAAA [excalibur15],41.6 nM,35.4 nM,–
AAAAAACAUGAGGAUCACCCAUGUAAGGAUAUGUAAAAUAAAAGAAAAAUAAAGAAAAGCAGAAGGUACAAGAA [JL wbt mod 18],37.1 nM,23.4 nM,–
AAAAAACAUGAGGAUCACCCAUGUCAGGAUAUCAUAAAAAAAAAAAAAAAAAAAAAAGUGAGAAGGGACAAAAA [exclusion1-cac1],42.9 nM,32.7 nM,–
AAAAAACAUGAGGAUCACCCAUGUCAGGAUAUCCGGUUCUUGAAAAUCAAGAGGCGUUGGAGAAGGGACAUUCC [Chica Displaced 14 - Jieux - Exclusion 1],27.9 nM,74.4 nM,–
AAAAAACAUGAGGAUCACCCAUGUGAGGAUAUCGAAAAGAAAAGAAAAGAAAGAAGAACGAGAAGGCACAAGAA [Sneferu],36.6 nM,48 nM,–
AAAAAACAUGAGGAUCACCCAUGUGAGGAUAUCGAAAAGUCAAAGAAAAAGACGAAAACGAGAAGGCGCAAAAA [Inspired by Nando],23.7 nM,26 nM,–
AAAAAACAUGAGGAUCACCCAUGUGAGGAUAUCGGAAACAAAAAAAACAAAAACAAAACGAGAAGGCACAAAAA [Amethyst 32],72.4 nM,26.6 nM,–
AAAAAACAUGAGGAUCACCCAUGUGAGGAUAUGCAAAAAUAAAAUAAAAUAAUAAAAAGCAGAAGGCACAAAAA [Amethyst 76],20.5 nM,26.4 nM,–
"AAAAAACAUGAGGAUCACCCAUGUGAGGAUAUGCGAAAAUAAAAUAAAAUAAUAAAAAGCAGAAGGCACACCAA [58%, Sh'dynasty, 2]",22 nM,29 nM,–
AAAAAACAUGAGGAUCACCCAUGUGAGGAUAUGGAAAAGAAAAGAAAAGAAAGAAGAACCAGAAGGCACAAGAA [Khafre],30 nM,37.9 nM,–
AAAAAACAUGAGGAUCACCCAUGUGAGGAUAUGUAAAAUAAAAUAAAAAUAAAAAAAAGCAGAAGGUAUAUGAA [Amethyst 66],31.4 nM,40.6 nM,–
AAAAAACAUGAGGAUCACCCAUGUUAGGAUAUGCUAUGGAAAAUAAAAAAUAAACAUAGCAGAAGGAACAAAAA [Mat - Exclusion 1 - Eli mod - D30],21.2 nM,32.6 nM,–
AAAAAAGCAGGAUAUACGUACAUGUCAAAAGACGUGAAGGGACAUGAGGAUCACCCAUGUAGAAGGGUUAAGAA [JL Stem Breaker 17],220 nM,49.4 nM,–
AAAAAAGGAGGAUAUACGUACAUGUCAAAAGACGUGAAGGGACAUGAGGAUCACCCAUGUAGAAGGUUUAAAAA [JL Wide Open 31],49.1 nM,18.3 nM,–
AAAAACAGAGGAUAUACAAAAUGAUGACGAAAGUCAUCAAAACAUGAGGAUCACCCAUGUAGAAGGCUGAAAAA [Mod of Meechl],24.2 nM,20.2 nM,–
AAAAACAGAGGAUAUACAUGAGGAUCACCCAUGUAAAAAUGUAGAAGGCUGAAAAAAAAAAGAAGGAAAAAAAA [Meechl Ex3 R2 m0],21.6 nM,23.2 nM,–

Sequence,apparent KD of MS2 coat protein (MS2 coat protein [1]),apparent KD of MS2 coat protein (MS2 coat protein [2]),further results
AAAAACUCAGGAUAUACAUGAGGAUCACCCAUGUAAAAAAAAAAAAAGGGAAAAAAAAGUAGAAGGGAGAAAAA [Semenre],25.5 nM,37.2 nM,–
AAAAAGAGAGGAUAUGCAGGAGAAAAAAAAAAAAAAAAAAAACAUGAGGAUCACCCAUGUAGAAGGCUCAAAAA [Ecls2-II],28.4 nM,15.7 nM,–
AAAAAGAGAGGAUAUGCAGGAGGUAAGGUCAAAAAAAAAAAACAUGAGGAUCACCCAUGUAGAAGGUUUAAAAA [Ecls2-VI],29.3 nM,23.5 nM,–
AAAAAGCGAGGAUAUACAAAAGAGCGAAAGCUCAAAAGGAAACAUGAGGAUCACCCAUGUAGAAGGCGCAAGAA [John Whine],23.1 nM,20.1 nM,–
AAAAAGCUAGGAUAUACGAAAAAAAAGGGUAAAAAAUAAAAACAUGAGGAUCACCCAUGUAGAAGGAGCAAAAA [Mat - Exclusion 2 - Tesla mod - D36],43.2 nM,77.9 nM,–
AAAAAGGCAGGAUAUACAAAACAGGGAAACCUGAAAAGGAAACAUGAGGAUCACCCAUGUAGAAGGGCCAAGAA [Clint Eastwood],31 nM,30.9 nM,–
AAAAAGGCAGGAUAUACAUGAGGAUCACCCAUGUUUUAAAAAAAAAAAAAAAAAAAAAGUAGAAGGGCCAAAAA [Ex 3.1],52.3 nM,39.7 nM,–
"UUGAGAAAUUAAGGAUAUUGAGUACAUAUGUUUAACAUGAGGAUCACCCAUGUGGGUUGCGGUAUCGAGAAGGUAAAUUACUAG [Mat - same State NG 2 - JL mod - D72] (Eterna round: R96, puzzle: Same State NG 2)",–,–,apparent KD of MS2 coat protein (MS2 coat protein [3]; input ligand: FMN 200 uM): 138 nM; apparent KD of MS2 coat protein (MS2 coat protein [3]; [4]): 64.7 nM; apparent KD of MS2 coat protein (MS2 coat protein [3]; input ligand: none): 112 nM
UUGCGCUGUCGAGAGGAUAUGCGGUGUUGGACAUGAGGAUCACCCAUGUUAGCGAUAGCUUUACGGUAGAAGGCUCUUCAGCUGC [salish99_ss2_r3_097] (puzzle: Same State 2),–,–,apparent KD of MS2 coat protein (MS2 coat protein [3]; [5]): 99 nM
"UUGCGGGCUUGAGGAUAUUGAGUACAUAUGUUUAACAUGAGGAUCACCCAUGUGGGUUGCGGUAUCGAGAAGGUAACUUCCUUC [salish99_SSNG2_r04_810] (Eterna round: R96, puzzle: Same State NG 2)",–,–,apparent KD of MS2 coat protein (MS2 coat protein [3]; input ligand: FMN 200 uM): 190 nM; apparent KD of MS2 coat protein (MS2 coat protein [3]; [4]): 146 nM; apparent KD of MS2 coat protein (MS2 coat protein [3]; input ligand: none): 157 nM
"UUGGUACAUGAGGAUCACCCAUGUGGGUCGGUCGCAGGAUAUGCCCGUGGGCGCUUGCGGGCAGAAGGGUGCCGUA [Same State1-X] (Eterna round: R96, puzzle: Same State 1)",–,–,apparent KD of MS2 coat protein (MS2 coat protein [3]; input ligand: FMN 200 uM): 173 nM; apparent KD of MS2 coat protein (MS2 coat protein [3]; [4]): 386 nM; apparent KD of MS2 coat protein (MS2 coat protein [3]; input ligand: none): 1000 nM
"UUGUUUCGUCAUUAACAUGAGGAUCACCCAUGUAAAGGAGCAGAGGAUAUGCAUGUUUGAUUGUAGCAGAAGGCUGAUUGUUGU [JR_SSNG3_Sub034] (Eterna round: R96, puzzle: Same State NG 3)",–,–,apparent KD of MS2 coat protein (MS2 coat protein [3]; input ligand: FMN 200 uM): 32.6 nM; apparent KD of MS2 coat protein (MS2 coat protein [3]; [4]): 27.9 nM; apparent KD of MS2 coat protein (MS2 coat protein [3]; input ligand: none): 31.9 nM
"UUGUUUCGUCAUUAACAUGAGGAUCACCCAUGUAUUGACCCAAAGGAUAUAUAUGUUUGUUUGUAAUAGAAGGUUGAUUGUUGU [JR_SSNG3_Sub091] (Eterna round: R96, puzzle: Same State NG 3)",–,–,apparent KD of MS2 coat protein (MS2 coat protein [3]; input ligand: FMN 200 uM): 19.9 nM; apparent KD of MS2 coat protein (MS2 coat protein [3]; [4]): 16.8 nM; apparent KD of MS2 coat protein (MS2 coat protein [3]; input ligand: none): 20.6 nM
"UUUAGAUUCAGAGGAUAUUGAUGUUGUAUUUUACAAGAAGGCUGAUUGGUUUGAAAUGUUAUUAAACAUGAGGAUCACCCAUGU [JR_SSNG1_Sub012] (Eterna round: R96, puzzle: Same State NG 1)",–,–,apparent KD of MS2 coat protein (MS2 coat protein [3]; input ligand: FMN 200 uM): 31.7 nM; apparent KD of MS2 coat protein (MS2 coat protein [3]; [4]): 32.3 nM; apparent KD of MS2 coat protein (MS2 coat protein [3]; input ligand: none): 44.5 nM
"UUUAGUUGCGCGCAGGAUAUGUAUUAAUAUACAUGAGGAUCACCCAUGUGAGACCAAAUAGGUCUACAGAAGGGCGAAUCGCGAC [Laonerce - 29] (Eterna round: R96, puzzle: Same State 2)",–,–,apparent KD of MS2 coat protein (MS2 coat protein [3]; input ligand: FMN 200 uM): 42.6 nM; apparent KD of MS2 coat protein (MS2 coat protein [3]; [4]): 182 nM; apparent KD of MS2 coat protein (MS2 coat protein [3]; input ligand: none): 354 nM
UUUAGUUGCGCGCAGGAUAUGUAUUAAUAUACAUGAGGAUCACCCAUGUGAGACCAAAUAGGUCUACAGAAGGGCGAAUCGCGAC [Laonerce - 29] (puzzle: Same State 2),–,–,apparent KD of MS2 coat protein (MS2 coat protein [3]; [6]): 29.4 nM; apparent KD of MS2 coat protein (MS2 coat protein [3]; [5]): 234 nM; apparent KD of MS2 coat protein (MS2 coat protein [3]; [7]): 715 nM
UUUAGUUGCGGGCAGGAUAUGUAUUAAAGUACAUGAGGAUCACCCAUGUGCGGGUAUAACACCCGACAGAAGGGCCAAUCGCGAC [Laonerce - 1] (puzzle: Same State 2),–,–,apparent KD of MS2 coat protein (MS2 coat protein [3]; [6]): 17.7 nM; apparent KD of MS2 coat protein (MS2 coat protein [3]; [5]): 64.3 nM; apparent KD of MS2 coat protein (MS2 coat protein [3]; [7]): 115 nM
UUUAUACAUGAGGAUCACCCAUGUCAAUGUAGUCGAGGAUAUGGGCAGCCGUGAGGCGUACUAGAAGGCGAAGAGG [JL-ss1-3.09 ViennaUCT mod] (puzzle: Same State 1),–,–,apparent KD of MS2 coat protein (MS2 coat protein [3]; [5]): 117 nM
UUUUUAUAACAUGAGGAUCACCCAUGUGCGCGCACAAGGUUGUUGCUCGUCUUAUUUUUUUUUUUUUUUUUUUUUUU [viviankchen2] (puzzle: Sensor for hsa-mir-208a version 2),–,–,apparent KD of MS2 coat protein (MS2 coat protein [3]; [6]): 33.2 nM; apparent KD of MS2 coat protein (MS2 coat protein [3]; [5]): 220 nM; apparent KD of MS2 coat protein (MS2 coat protein [3]; [7]): 44.1 nM
